Data published in US20220396632A1 (VERSEAU THERAPEUTICS, published 2022).
Non-standard residues stand in square brackets, D forms with d. No end group written: not given here. *: point of attachment. Biotin = O=C1N[C@H]2[C@H](CS[C@H]2CCCCC(=O)*)N1; sY = N[C@@H](Cc1ccc(OS(=O)(=O)O)cc1)C(=O)O

B1: 05E08 (antibody, IgG4, V domains shown)
VH: EVQLVQSGGGVVQPGRSLRLSCAASGFTFSTYAMHWVRQAPGKGLEWVAVISYDGSNKYYADSVKGRFTISRDNSRNTLFLQMNSLRDEDTAVYYCAKRGTMIRGERSLDFWGQGTLVTVSS
VL: AIQMTQSPSFLSASVGDRVTITCRASQGINSWLAWYQQKPGTAPNLLIHAASTLQSGVPSRFSGSRSGTEFTLTISSLQPEDFATYYCQQLQSYPLTFGQGTRLEIK
B2: 05A11 (antibody, IgG4, V domains shown)
VH: EVKLLESGGGVVQPGRSLRLSCAASGFSFSAYGMHWVRQAPGKGLEWVSSISGSGDGTYYADSVKGRFTISRDNSKNTLYLQMNSLRAEDAAVYYCAKSVKGRGYFFDYWGQGTLVTVSS
VL: DIVLTQSPSSLSASVGDRVTITCRASQSISSYLNWYQQKPGKAPKLLIYAASSLQSGVPSRFSGSGSGTDFTLSISNLQPEDFATYYCQQAYKFPRSFGGGTKVEFK
B3: 05D01 (antibody, V domains shown)
VH: QVTLRESGGALVQPGGSLRLSCAASGFPLRSNAMTWVRQAPGKGLEWVSDIRGNGASTYYADSVKGRFTISRDDSNNILFLQMNSLRAEDTAVYYCVGHGSSSYWGQGTLVTVSS
VL: DVVMTQSPLSLPVTLGQPASISCRSSQSLVYRDGNIYLNWFQQRPGQSPRRLIYKVSNRDSGVPDRFSGSGSGTDFTLKISRVEAEDVGVYYCMQLTHWPPGFAQGTKLEIK
B4: 11D10 (antibody, IgG4, V domains shown)
VH: EVKLLESGGGLVQPGGSLRLSCAVSGFTFSTSAMIWVRQAPGKGLEWVSFISGSTSNTYYADSVKGRFTISRDNSKNTLYLQMNGLTAEDTAVYYCARGTAAATWGQGALVTVSS
VL: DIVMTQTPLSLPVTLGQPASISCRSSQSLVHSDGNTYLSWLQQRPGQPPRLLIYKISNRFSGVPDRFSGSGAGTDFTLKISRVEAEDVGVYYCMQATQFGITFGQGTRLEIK
B5: 09D04 (antibody, IgG4, V domains shown)
VH: QVQLQQSGGGLVQPGGSLTLSCVGSGFDFRSYAMSWVRQAPGKGLEWVSGINNSGSKTYYADFVKGRFSVSRDNSKNIVWLRMRSLRAEDTAVYYCARRTFGPPHAWGQGTMVTVSS
VL: DVVMTQSPLSLPVTPGEPASISCRSSQSLLHSNGYTYLEWYLHKPGQSPQLLIYLGSNRASGVPDRFSGSGSGTDFTLKISRVEAEDVGVYYCMHSLHIPFTFGPGTKVDIK
B6: 05H03 (antibody, IgG4, V domains shown)
VH: QVQLQQSGGGLVQPGGSLTLSCVGSGFDFRSYAMSWVRQAPGKGLEWVSGINNSGSKTYYADFVKGRFSVSRDNSKNIVWLRMRSLRAEDTAVYYCARRTFGPPHAWGQGTMVTVSS
VL: DIVMTQSPLSLSVTPGEPASISCRSSQSLLHSNGYKYLDWYLQKPGQSPQLLIYMGSNRASGVPDRFSGSGSGTDFTLKISRVEAEDVGVYYCMQGLQSPLTFGGGTKVEIE
B7: 09A08 (antibody, IgG4, V domains shown)
VH: QVQLVQSGAAVKKPGESLKISCKGSGYTFSNYWIGWVRQMPGKGLEWMGIIYPGDSDTRYSPSFQGQVTISADKSISTAYLQWSSLKASDTAMYYCARHIVGPPKSAFDIWGQGTMVTVSS
VL: DIVMTQTPLSLPVTLGQPASISCSSSQGLQKRDGNTYLNWFQQRPGQSPRRLIYKVSNRDSGVPDRFSGSGSGTDFTLKISRVEAEDVGVYYCMQGTHWPWTFGQGTRVEIK
B8: 07E07 (antibody, IgG4, V domains shown)
VH: QVQLQQSGAEVKKPGASVKVSCKASGYTFTSYYMHWVRQAPGQGLEWMGIINTSSGSTKYAQRFQDRVTVTRDTSTTTVYMELNSLRSEDTAVYYCARGGRAYSGSFDNWGQGTLVTVSS
VL: DVVMTQSPLSLPVTLGQPASISCRSSQSLVHRDGNTYFNWFQQRPGQSPRRLIYKVSNRDSGVPDRFSGSGSGTDFTLKISRVEAEDVGVYYCMQATHWPRTFGQGTKVEIK
B9: 05C02 (antibody, V domains shown)
VH: EVKLLESGGGVVQPGRSLRLSCAASGFTFKNFAMHWVRQAPGKGLEWVAVISYDGSSEDYADSVKGRFTLSRDNAKNSLYLQMNNLRAEDTAVYYCARGRRPDYWGQGTLVTVSS
VL: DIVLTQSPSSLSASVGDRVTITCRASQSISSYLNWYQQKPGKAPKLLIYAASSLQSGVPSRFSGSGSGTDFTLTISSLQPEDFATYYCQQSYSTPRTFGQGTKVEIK
B10: 03F03 (antibody, V domains shown)
VH: QVQLQESGPGLVKPSETLSLTCTVSGGSISSSSYYWGWIRQPPGKGLEWIGSIYYSGSTYYNPSLKSRVTISVDTSKNQFSLKLSSVTAADTAVYYCARSRPRPWAFDIWGQGTMVTVSS
VL: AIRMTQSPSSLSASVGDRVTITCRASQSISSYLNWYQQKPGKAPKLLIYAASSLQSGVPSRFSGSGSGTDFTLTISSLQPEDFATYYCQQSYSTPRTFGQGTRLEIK
B11: 09A02 (antibody, IgG4, V domains shown)
VH: EVQLVQSGGGLVKPGGSLRLSCAASGFTFRTAWMSWVRQAPGKGLEWVGRMKSKNDGGTTDYAAPVKGRFTISRDDSRDTVYLQMNSLKTEDTGVYYCATYAAGATVPWGQGTLVTVSS
VL: DIVMTQTPLSAPVTLGQPASISCRSSRSLLQRNGYNYVDWYQQKAGNPPRLLIYLGSRRASGVPDRFSGSGSDKDFTLKISRVEADDVGFYFCKQSLQAPPTFGGGTKIEIT

Columns and labels:
SulfoCCK biotin peptide = target: T1, SulfoCCK biotin peptide (human); assay: ELISA, 50 nM mAb
T1 construct: also called sulfotyrosine CCK peptide
T1 peptide: SHRISDRD[sY]MGWMDFGGK(Biotin)
Description: (§1) Recombinant PSGL-1-hFc1 chimera protein consisting of PSGL-1's extracellular domain (ECD) served as a positive control. […] Primary antibody was added (25 ul per well) in duplicate at 50 nM in assay buffer (blocking buffer containing 0.05% Tween®20) into test and control (just blocked) wells and the plate incubated for 45 min at 37° C.

[1] = target: T2, Recombinant human PSGL-1(ECD)-hFc1 (R&D Systems, Cat. 3345-PS) (human, UniProt Q14242 42-305); assay: ELISA, 50 nM mAb
T2 construct: Bought; Gln42-Val295 counted on AAC50061; also called PSGL-1-Fc; PSGL-1-hFc1 chimera; not shown: human IgG1 Fc, Pro100-Lys330
T2 sequence: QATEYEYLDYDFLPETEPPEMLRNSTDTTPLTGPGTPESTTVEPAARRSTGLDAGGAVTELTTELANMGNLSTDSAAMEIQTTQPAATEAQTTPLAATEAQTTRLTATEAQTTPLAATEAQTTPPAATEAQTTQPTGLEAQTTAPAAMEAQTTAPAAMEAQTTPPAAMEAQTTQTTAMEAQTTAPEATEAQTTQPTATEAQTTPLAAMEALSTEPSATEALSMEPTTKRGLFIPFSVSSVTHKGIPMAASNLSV
Description: as §1

[2] = target: T3, Cynomolgus PSGL-1(ECD)-hFc1 (cynomolgus macaque); assay: ELISA, 20 nM mAb on plate cyno PSGL-1(ECD)-Fc
T3 construct: also called Cyno PSGL1-Fc; Cyno PSGL-1(ECD)-Fc
Description: Antibody binding to plate-immobilized cyno PSGL-1(ECD) was determined either at one concentration (20 nM) or by generating full antibody binding curves (0.003-200 nM). A typical ELISA was performed by overnight coating at 4° C. with 3 ug/mL/25 ul per well of recombinant cyno PSGL-1(ECD) protein in PBS, pH 7.4, in high binding half-well plates (Corning Cat. #3690). […] Anti-PSGL-1 IgG in assay buffer (blocking buffer containing 0.05% tween 20) was added into test and control wells (20 nM/25 ul/well) and the plate incubated for 45 min at 37° C. […] The plate was incubated for 45 min at 37° C., and mAb bound to plate-immobilized target determined at A450 nm using HRP substrate (3,3′,5,5′-tetramethylbenzidine (TMB)). For each antibody, duplicate values were averaged and assay background subtracted.

[3] = target: T4, Biotin Y46,48,51(SO3) PSGL-1(42-62) peptide (human, sulfotyrosine at Y46, Y48 and Y51; C-terminal Lys-biotin); assay: ELISA, immobilized biotin peptide
T4 construct: also called fully sulfated N-terminal PSGL-1 peptide
T4 peptide: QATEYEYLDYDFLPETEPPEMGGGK
Procedure, shortened: (§2)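 In this ELISA, half-well high binding plates (Corning Cat. #3690) received 3 ug/mL/25 ul per well of biotin-tagged PSGL-1 peptides covering residues 42 to 62, diluted in PBS, pH 7.4, and coated overnight at 4° C. Duplicate readings for each antibody were averaged and the average assay background was subtracted. PSGL-1 protein or peptide was the positive control.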

[4] = target: T5, Scrambled Y42,52,63(SO3) PSGL-1(42-62) biotin peptide (sulfotyrosine at peptide positions 1, 11 and 22; C-terminal Lys-biotin); assay: ELISA, immobilized biotin peptide
T5 peptide: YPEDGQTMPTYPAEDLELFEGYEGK
Procedure, shortened: as §2

[5] = target: T6, Biotin PSGL-1(42-62) peptide, unmodified (human, C-terminal Lys-biotin); assay: ELISA, immobilized biotin peptide
T6 construct: Residues 42-62 followed by GGGK-biotin; also called WT; wild-type
T6 peptide: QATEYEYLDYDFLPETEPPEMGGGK
Procedure, shortened: as §2

[6] = target: T7, Sulfotyrosine D6 biotin peptide (human); assay: ELISA, 50 nM mAb
T7 construct: also called D6 peptide
T7 peptide: ENSSFY[sY][sY]D[sY]LDEVAFGGK(Biotin)
Description: as §1

Binder | binding normalized to PSGL-1 (SulfoCCK biotin peptide) | A450nm [1] [A450nm] | A450nm [2] [A450 nm] | A450nm, 20 nM mAb [3] [A450nm] | EC50 [3] [nM] | A450nm, 20 nM mAb [4] [A450nm] | binding result [4] | EC50 [5] [nM] | binding normalized to PSGL-1 [6] | A450nm, 20 nM mAb [5] [A450nm]
B1 | 0.85 | 2.46 | 0.77 | 2.57 | ~0.01 | 0.01 | no binding (tested: 20 nM) | > 500 | – | –
B2 | 0.41 | 1.99 | 0.7 | 2.52 | ~0.025 | – | no binding (tested: 20 nM) | ~500 | 0.45 | –
B3 | 0.3 | 2.33 | 1.38 | 2.85 | – | 0.01 | no binding (tested: 20 nM) | – | 0.84 | 1.33
B4 | 0.05 | 2.38 | 1.4 | 2.52 | 0.65 | – | no binding (tested: 20 nM) | 0.51 | 0.08 | –
B5 | 0.53 | 2.66 | 1.93 | 2.63 | 0.07 | 0.05 | no binding (tested: 20 nM) | ~0.05 | 0.75 | –
B6 | 0.74 | 2.58 | 2.01 | 2.77 | ~0.02 | 0.04 | no binding (tested: 20 nM) | ~0.02 | 0.8 | –
B7 | 0.08 | 2.49 | 1.18 | 2.43 | 0.1 | – | no binding (tested: 20 nM) | > 500 | 0.6 | –
B8 | 0.75 | 2.44 | 0.38 | 2.77 | 0.15 | 0.01 | no binding (tested: 20 nM) | > 500 | – | –
B9 | 0.17 | 2.27 | 0.64 | 2.8 | ~0.01 | – | no binding (tested: 20 nM) | 3 | 0.52 | –
B10 | 0.96 | 2.12 | 0.58 | 2.54 | 0.08 | 0.03 | no binding (tested: 20 nM) | > 500 | – | –
B11 | 1.1 | 2.51 | 0.73 | 2.82 | 0.51 | 0.03 | no binding (tested: 20 nM) | ~500 | 1.1 | –
